First the molecules themselves.
B1: CysR∼CTLD3-Fc of DEC205 [human] / K10-T10 (residue G481-G490), SUMO fusion [human] (parent complex)
chain 1: SGRAANDPFTIVHGNTGKCIKPVYGWIVADDCDETEDKLWKWVSQHRLFHLHSQKCLGLDITKSVNELRMFSCDSSAMLWWKCEHHSLYGAARYRLALKDGHGTAISNASDVWKKGGSEESLCDQPYHEIYTRDGNSYGRPCEFPFLIDGTWHHDCILDEDHSGPWCATTLNYEYDRKWGICLKPENGCEDNWEKNEQFGSCYQFNTQTALSWKEAYVSCQNQGADLLSINSAAELTYLKEKEGIAKIFWIGLNQLYSARGWEWSDHKPLNFLNWDPDRPSAPTIGGSSCARMDAESGLWQSFSCEAQLPYVCRKPLNNTVELTDVWTYSDTRCDAGWLPNNGFCYLLVNESNSWDKAHAKCKAFSSDLISIHSLADVEVVVTKLHNEDIKEEVWIGLKNINIPTLFQWSDGTEVTLTYWDENEPNVPYNKTPNCVSYLGELGQWKVQSCEEKLKYVCKRKGEKLNDASSDKMCPPDEGWKRHGETCYKIYEDEVPFGTNCNLTITSRFEQEYLNDLMKKYDKSLRKYFWTGLRDVDSCGEYNWATVGGRRRAVTFSNWNFLEPASPGGCVAMSTGKSVGKWEVKDCRSFKALSICKKMS
chain 2: GSSGGGHGGG

Data on two variants can be found in article PMC10914487, “Interaction of human dendritic cell receptor DEC205/CD205 with keratins” (The Journal of Biological Chemistry, 2024).

The variants in this assay derive from B1. Kind of assay: ELISA; pH 6.0; protein conc 5 µg/ml (highest point of the titration); parent: 3.9; read off a plot. In general terms: In an ELISA, binding on a coated surface is turned into a signal by an enzyme label.
As for chain 2 GSSGGGRGGG [chain 2 H7R], the response was about 1.9 OD 450. As for chain 2 GSRGGGHGGG [chain 2 S3R], the response is about 2.1 OD 450.
